The values that follow come from US20240343811A1 (SHANDONG SIMCERE BIOPHARMACUTICAL, published 2024).

Read-outs that look alike come from different tables or passages of the source.

Assay [1] concerns the target T1, human CD16a (158F), full length, on FlpinCHO cells (human, UniProt P08637 17-254). The assay is described as follows: FACS on FlpinCHO cells. The procedure:
(§1) The required cells were scale-up cultured in a T-75 cell culture flask to the logarithmic growth phase. The medium was aspirated, and the cells were washed twice with a PBS buffer and then digested with trypsin. After the digestion was terminated, the cells were washed twice with the PBS buffer. The cells were counted, and then the cell pellet was resuspended with a [PBS+2% (w/w) BSA] blocking solution to 2×10⁶ cells/ml, and added to a 96-well FACS reaction plate at 50 μl/well. […] 50 μl/well of the antibody to be detected was added at different concentrations, and incubated on ice for 1 hour. […] The mixture was centrifuged and washed 5 times with PBS, and FACS (FACS Canto II, purchased from BD Company) was used for detection and result analysis. Data analysis was performed by software (CellQuest) to obtain the mean fluorescence intensity (MFI) of the cells. Then, software (GraphPad Prism8) was used for analysis, data fitting and EC50 value calculation.
(§2) The binding of a humanized antibody to FlpinCHO-human CD16a cells was detected according to the method of Example 3.1.
Target sequence in this assay (P08637 17-254 limits assumed): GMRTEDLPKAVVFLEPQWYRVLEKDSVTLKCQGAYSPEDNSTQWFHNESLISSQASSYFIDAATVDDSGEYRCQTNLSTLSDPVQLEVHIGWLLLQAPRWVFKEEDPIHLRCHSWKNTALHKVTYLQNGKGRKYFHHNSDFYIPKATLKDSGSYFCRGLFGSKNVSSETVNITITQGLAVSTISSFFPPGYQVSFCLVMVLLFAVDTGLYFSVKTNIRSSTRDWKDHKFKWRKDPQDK

For assay [2], the target named is T2, human CD16a (158V), full length, on cells (human, UniProt P08637 17-254).
T2 construct: also used as target for the bought Jurkat-NFAT reporter line stably expressing human CD16a (158V); also called FlpinCHO-human CD16a (158V); FlpinCHO-CD16a (158V)
Briefly: FACS on FlpinCHO cells. The procedure:
as §1, §2
Target sequence in this assay (P08637 17-254 F176V limits assumed): as the sequence (P08637 17-254 limits assumed) above, with F160V counted along it

Assay [3] deals with T3, human CD16b (NA1), full length, on FlpinCHO cells (human, UniProt O75015 17-200).
T3 construct: also called FlpinCHO-human CD16b (NA1)
T3 chain: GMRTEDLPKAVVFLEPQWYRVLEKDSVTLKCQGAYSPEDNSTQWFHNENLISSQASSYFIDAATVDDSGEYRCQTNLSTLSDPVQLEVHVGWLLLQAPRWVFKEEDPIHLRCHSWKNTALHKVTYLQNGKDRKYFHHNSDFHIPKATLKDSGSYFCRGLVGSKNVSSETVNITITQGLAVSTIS
Briefly: FACS on FlpinCHO cells. The method, then:
as §1
(§3) The binding of an antibody to be detected to FlpinCHO-human CD16b cells was detected according to the method of Example 3.1.

Assay [4] deals with T4, human CD16b (NA2), full length, on FlpinCHO cells (human, UniProt O75015 17-200).
T4 construct: also called FlpinCHO-human CD16b (NA2)
T4 chain: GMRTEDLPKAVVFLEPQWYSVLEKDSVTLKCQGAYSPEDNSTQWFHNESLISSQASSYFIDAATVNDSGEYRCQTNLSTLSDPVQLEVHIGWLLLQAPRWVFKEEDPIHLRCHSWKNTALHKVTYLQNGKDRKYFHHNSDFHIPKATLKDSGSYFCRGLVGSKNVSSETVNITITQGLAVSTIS
Briefly: FACS on FlpinCHO cells. The method, then:
as §1, §3

For assay [5], the target named is T2, human CD16a (158V), full length, on …. Briefly: cell-based or functional assay.
Target sequence in this assay (P08637 17-254 F176V limits assumed): as the sequence (P08637 17-254 limits assumed) above, with F160V counted along it
Assay [6] has as its target T5, Human CD16a (158F)-his (human).
T5 construct: entry holds ECD, AVI tag, linker and His tag
The assay is described as follows: SPR (Biacore), antibody captured on Protein A. The method, then: (§4) A sample buffer and a running buffer were HBS-EP+ (10 mM HEPES, 150 mM NaCl, 3 mM EDTA and 0.05% surfactant P20) (GE Healthcare; BR-1006-69). The flow-through cell was set to 25° C. The sample block was set to 16° C. Both were pretreated with the running buffer. In each cycle, an antibody to be detected was first captured with a Protein A chip, and then a single concentration of CD16 antigen protein was injected. The binding and dissociation processes of the antibody and the antigen protein were recorded, and finally Glycine pH 1.5 (GE Healthcare; BR-1003-54) was used to complete chip regeneration. Binding was measured by injecting different concentrations of recombinant human CD16-ECD his proteins in a solution for 240 s with a flow rate of 30 μL/min, wherein a total of 5 concentrations were prepared by using 200 nM as a starting concentration (see the detailed results for the actual concentration in the test) and performing a 1:1 dilution. The dissociation phase was monitored for up to 600 s and was triggered by switching from a sample solution to a running buffer. The surface was regenerated by washing with a 10 mM glycine solution (pH 1.5) for 30 s at a flow rate of 30 μL/min. Bulk refractive index difference was corrected by subtracting the response obtained from the goat anti-human Fc surface. Blank injection was also subtracted (=double reference). For calculation of apparent KD and other kinetic parameters, Langmuir 1:1 model was used.
A general note: SPR reads the build-up and loss of mass on a sensor chip optically.

In assay [7] the target is T1, human CD16a (158F), full length, on …. The assay is described as follows: FACS on FlpinCHO cells. The procedure:
as §1
This is another data set of the same source.

Assay [8] concerns the target T2, human CD16a (158V), full length, on …. Briefly: FACS on FlpinCHO cells. The method, then: as §1
This is another data set of the same source.

For assay [9], the target named is T3, human CD16b (NA1), full length, on …. The assay is described as follows: FACS on FlpinCHO cells. The method, then:
as §1, §3

Assay [10] addresses T4, human CD16b (NA2), full length, on …. Briefly: FACS on FlpinCHO cells. The method, then:
as §1, §3

The target of assay [11] is T2, human CD16a (158V), full length, on …. The assay is described as follows: cell-based or functional assay. The source holds these as a separate data set.
Assay [12] concerns the target T1, human CD16a (158F), full length, on …. Briefly: FACS, biotinylated antibody. The procedure: as §1, with “The” for “The required cells were scale-up cultured in a T-75 cell culture flask to the logarithmic growth phase. The”
(§5) An antibody to be detected was labeled in advance according to the instructions of a biotin labeling kit (EZ-Link™ NHS-PEG4 Biotinylation Kit, purchased from Thermofisher Scientific, catalog number: 21455). […] Detection was performed according to the method of Example 3.1, wherein the biotinylated antibody was detected with fluorescein APC-labeled Streptavidin (High Concentration) (purchased from Biolegend, catalog number: 405243).
A general note: In flow cytometry, cells or beads pass a laser one at a time.

The target of assay [13] is T2, human CD16a (158V), full length, on …. The assay is described as follows: FACS, biotinylated antibody. The procedure:
as §1, with “The” for “The required cells were scale-up cultured in a T-75 cell culture flask to the logarithmic growth phase. The”
as §5

The target in assay [14] is T6, Human CD16a (158V)-his (human).
T6 construct: entry holds ECD, AVI tag, linker and His tag
The assay is described as follows: SPR (Biacore), antibody captured on Protein A. The procedure:
as §4

Assay [15] addresses T7, Human CD16b (NA1)-his (human).
T7 construct: entry holds ECD, linker, His tag and AVI tag
T7 chain: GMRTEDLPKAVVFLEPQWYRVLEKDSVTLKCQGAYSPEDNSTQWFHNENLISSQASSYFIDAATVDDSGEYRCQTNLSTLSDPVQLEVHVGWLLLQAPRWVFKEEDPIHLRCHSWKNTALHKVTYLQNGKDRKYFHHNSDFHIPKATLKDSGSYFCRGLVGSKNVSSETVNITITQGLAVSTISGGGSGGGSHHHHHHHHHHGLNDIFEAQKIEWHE
Briefly: SPR (Biacore), antibody captured on Protein A. The method, then:
as §4

The target in assay [16] is T1, human CD16a (158F), full length, on …. Briefly: FACS, biotinylated antibody, +10 mg/mL human immunoglobulin. The procedure: as §1, with “The” for “The required cells were scale-up cultured in a T-75 cell culture flask to the logarithmic growth phase. The”
as §5

Assay [17] deals with T2, human CD16a (158V), full length, on …. The description is as above. The procedure:
as §1, with “The” for “The required cells were scale-up cultured in a T-75 cell culture flask to the logarithmic growth phase. The”
as §5

B1: VHH06-06 humanized VHH-Fc antibody (Fc fusion)
chain: EVQLVESGGGVVQPGGSLRLSCAASGSTWTTYAVRWYRQAPGKQREWVAFISVDGSTNYADSVKGRFTVSRDNSKNTVYLQMNSLRAEDTADYICRVGGQYWGQGTMVTVSSEPKSSDKTHTCPPCPAPEEFGGPSVFLFPPKPKDTLMISRTPEVTCVVVAVSHEDPEVKFNWYVDGVEVHNAKTKPREEQYNSTYRVVSVLTVLHQDWLNGKEYKCKVSNKALPAPIEKTISKAKGQPREPQVYTLPPSREEMTKNQVSLTCLVKGFYPSDIAVEWESNGQPENNYKTTPPVLDSDGSFFLYSKLTVDKSRWQQGNVFSCSVMHEALHNHYTQKSLSLSPGK
B1: in assay [1], the EC50 is 300 pM and the “Maximum mean fluorescence intensity” value was 8930. In assay [2], the EC50 is 280 pM and the “Maximum mean fluorescence intensity” value is 8240. Further, in assay [3], the response was half-maximal at 250 pM (EC50) and the “Maximum mean fluorescence intensity” value amounted to 59800. Also, in assay [4], the “Maximum mean fluorescence intensity” value is 204 and the binding result is “no binding (tested: 100 nM)”. In addition, in assay [5], the “EC50, activation activity for Jurkat cell” value (from here on “EC50, activation activity”) is 10 pM and the Maximum fluorescence value was 167000. In assay [6], this molecule returned a Kd of 24600 pM, a koff of 0.00116 s⁻¹ and an association rate constant (kon) of 47100 M⁻¹ s⁻¹.

B2: VHH06-07 humanized VHH-Fc antibody (Fc fusion)
chain: EVQLVESGGGVVQPGGSLRLSCAASGSTWTTYAVRWYRQAPGKQREWVAFISVDGSTNYADSVKGRFTISRDNSKNTVYLQMNSLRAEDTADYICRVGGQYWGQGTQVTVSSEPKSSDKTHTCPPCPAPEEFGGPSVFLFPPKPKDTLMISRTPEVTCVVVAVSHEDPEVKFNWYVDGVEVHNAKTKPREEQYNSTYRVVSVLTVLHQDWLNGKEYKCKVSNKALPAPIEKTISKAKGQPREPQVYTLPPSREEMTKNQVSLTCLVKGFYPSDIAVEWESNGQPENNYKTTPPVLDSDGSFFLYSKLTVDKSRWQQGNVFSCSVMHEALHNHYTQKSLSLSPGK
With B2, in [1], it took 500 pM to reach a half-maximal effect (EC50) and the “Maximum mean fluorescence intensity” value is 9160. For the same molecule, in assay [2], the midpoint of the response, the EC50, lay at 500 pM and the “Maximum mean fluorescence intensity” value stood at 8460. Moreover, in assay [3], the EC50 turned out to be 330 pM and the “Maximum mean fluorescence intensity” value turned out to be 53500. Besides, in assay [4], the “Maximum mean fluorescence intensity” value stood at 167 and the binding result is “no binding (tested: 100 nM)”. Also, in assay [5], the “EC50, activation activity” value amounted to 20 pM and the Maximum fluorescence value was 173000. In assay [6], this molecule came in with a dissociation constant (Kd) of 32100 pM, a koff of 0.00139 s⁻¹ and a kon of 43100 M⁻¹ s⁻¹.

B3: VHH01 VHH-Fc antibody (Fc fusion)
chain: QVQLVESGGGLVQAGGSLRLSCVASRSTLTTYAVRWYRQAPGKQREWVAFISVDGNTNYPDSVKGRFIVSRDNAKNTVYLQMNSLKPEDTADYICRAGGQYWGQGTQVTVSSEPKSSDKTHTCPPCPAPEFEGGPSVFLFPPKPKDTLMISRTPEVTCVVVAVSHEDPEVKFNWYVDGVEVHNAKTKPREEQYNSTYRVVSVLTVLHQDWLNGKEYKCKVSNKALPAPIEKTISKAKGQPREPQVYTLPPSREEMTKNQVSLTCLVKGFYPSDIAVEWESNGQPENNYKTTPPVLDSDGSFFLYSKLTVDKSRWQQGNVFSCSVMHEALHNHYTQKSLSLSPGK
Take B3: the EC50 stood at 910 pM in [7]; 470 pM in [8]; 850 pM in assay [9]; 560 pM in assay [12]; 470 pM in [13]; 1210 pM in assay [16]. In assay [17], this molecule displayed a concentration for a half-maximal effect (EC50) of 1150 pM. In addition, the “Maximum mean fluorescence intensity” value in assay [7] worked out at 4010; in assay [8], 5000; in [9], 49700; in assay [10], 95; in [12], 4940; in assay [13], 6400. Moreover, the “Maximum mean fluorescence intensity” value in assay [16] turned out to be 6850; in assay [17] it was 9000. Besides, the binding result in [10] was “no binding (tested: 100 nM)”. Besides, the “EC50, activation activity” value in [11] was 90 pM. For the same molecule, the Maximum fluorescence value in assay [11] came to 178000. Besides, the Kd in assay [6] came out at 108000 pM; in assay [14] it was 27000 pM; in [15] it was 95700 pM. The koff turned out to be 0.00831 s⁻¹ in [6], 0.00373 s⁻¹ in [14] and 0.0485 s⁻¹ in assay [15]. Moreover, the kon in [6] worked out at 76600 M⁻¹ s⁻¹; in [14], 138000 M⁻¹ s⁻¹; in assay [15] it was 507000 M⁻¹ s⁻¹.

The term EC50 denotes the midpoint of the concentration-response curve. Broadly, the Kd is a measure of binding affinity in units of concentration. Broadly, the koff is a measure of how fast the partners let go of each other. High values mean a short-lived complex, low ones a long-lived complex. As usually defined, the kon is a measure of how fast the partners come together. A low value points to slow association.
